This note sets out measurements from PMC3656124, “DNA Topoisomerase II Is Involved in Regulation of Cyst Wall Protein Genes and Differentiation in Giardia lamblia” (PLoS Neglected Tropical Diseases, 2013).

One data set concerns the target T1, Topo II (Giardia lamblia, UniProt E2RU90 1-1491).
T1 sequence: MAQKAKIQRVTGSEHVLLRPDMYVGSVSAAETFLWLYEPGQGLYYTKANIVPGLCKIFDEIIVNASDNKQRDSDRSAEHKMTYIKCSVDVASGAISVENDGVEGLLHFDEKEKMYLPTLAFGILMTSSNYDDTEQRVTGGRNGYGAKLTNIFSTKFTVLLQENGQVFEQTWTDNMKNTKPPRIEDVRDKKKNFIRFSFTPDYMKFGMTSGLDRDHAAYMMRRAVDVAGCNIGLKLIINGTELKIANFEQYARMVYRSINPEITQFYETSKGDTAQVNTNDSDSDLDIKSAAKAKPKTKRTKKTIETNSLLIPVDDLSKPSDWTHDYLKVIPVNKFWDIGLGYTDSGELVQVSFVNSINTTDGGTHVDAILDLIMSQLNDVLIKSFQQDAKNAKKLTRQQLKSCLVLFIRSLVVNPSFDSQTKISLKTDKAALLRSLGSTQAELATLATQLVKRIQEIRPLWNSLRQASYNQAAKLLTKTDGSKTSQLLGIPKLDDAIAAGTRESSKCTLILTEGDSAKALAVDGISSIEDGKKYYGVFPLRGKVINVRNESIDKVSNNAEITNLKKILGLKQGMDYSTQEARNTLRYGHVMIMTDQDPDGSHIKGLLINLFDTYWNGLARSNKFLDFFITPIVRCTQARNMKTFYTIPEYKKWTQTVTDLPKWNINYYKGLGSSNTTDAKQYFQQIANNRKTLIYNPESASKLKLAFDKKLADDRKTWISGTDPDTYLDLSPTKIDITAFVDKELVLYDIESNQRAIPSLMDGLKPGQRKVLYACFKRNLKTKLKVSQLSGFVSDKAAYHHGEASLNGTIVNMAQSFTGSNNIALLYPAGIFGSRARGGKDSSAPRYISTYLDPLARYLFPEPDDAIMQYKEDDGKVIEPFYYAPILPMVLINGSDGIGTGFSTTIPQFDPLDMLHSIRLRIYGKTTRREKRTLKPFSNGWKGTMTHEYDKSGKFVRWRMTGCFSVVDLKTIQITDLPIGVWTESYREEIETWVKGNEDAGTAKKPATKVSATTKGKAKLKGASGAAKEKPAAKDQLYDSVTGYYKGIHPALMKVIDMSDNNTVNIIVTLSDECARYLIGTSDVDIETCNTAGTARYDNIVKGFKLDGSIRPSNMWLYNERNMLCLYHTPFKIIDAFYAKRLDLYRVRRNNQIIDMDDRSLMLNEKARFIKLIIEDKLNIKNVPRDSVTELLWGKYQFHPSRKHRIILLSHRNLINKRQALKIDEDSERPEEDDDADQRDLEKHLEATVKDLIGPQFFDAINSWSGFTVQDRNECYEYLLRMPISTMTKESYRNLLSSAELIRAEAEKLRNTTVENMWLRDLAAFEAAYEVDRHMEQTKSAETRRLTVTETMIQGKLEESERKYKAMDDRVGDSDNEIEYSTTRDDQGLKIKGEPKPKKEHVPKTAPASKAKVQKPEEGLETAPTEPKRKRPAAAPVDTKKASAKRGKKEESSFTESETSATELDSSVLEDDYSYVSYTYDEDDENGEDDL
The data set is described as follows: EMSA; EMSA: 0.02 pmol 5'-labeled probe, 5 ng protein, 20 ul, 0.5 ug poly(dI-dC), 15 min, room temperature, 6% acrylamide gel; buffer, salt and pH only by citation. The note with it: protein: recombinant; tags: C-terminal V5-His; chain copies: 2; label: 5'-32P.

Another data set addresses T2, Topo IICm1 (Giardia lamblia, UniProt E2RU90 489-1491, Y847H).
T2 sequence: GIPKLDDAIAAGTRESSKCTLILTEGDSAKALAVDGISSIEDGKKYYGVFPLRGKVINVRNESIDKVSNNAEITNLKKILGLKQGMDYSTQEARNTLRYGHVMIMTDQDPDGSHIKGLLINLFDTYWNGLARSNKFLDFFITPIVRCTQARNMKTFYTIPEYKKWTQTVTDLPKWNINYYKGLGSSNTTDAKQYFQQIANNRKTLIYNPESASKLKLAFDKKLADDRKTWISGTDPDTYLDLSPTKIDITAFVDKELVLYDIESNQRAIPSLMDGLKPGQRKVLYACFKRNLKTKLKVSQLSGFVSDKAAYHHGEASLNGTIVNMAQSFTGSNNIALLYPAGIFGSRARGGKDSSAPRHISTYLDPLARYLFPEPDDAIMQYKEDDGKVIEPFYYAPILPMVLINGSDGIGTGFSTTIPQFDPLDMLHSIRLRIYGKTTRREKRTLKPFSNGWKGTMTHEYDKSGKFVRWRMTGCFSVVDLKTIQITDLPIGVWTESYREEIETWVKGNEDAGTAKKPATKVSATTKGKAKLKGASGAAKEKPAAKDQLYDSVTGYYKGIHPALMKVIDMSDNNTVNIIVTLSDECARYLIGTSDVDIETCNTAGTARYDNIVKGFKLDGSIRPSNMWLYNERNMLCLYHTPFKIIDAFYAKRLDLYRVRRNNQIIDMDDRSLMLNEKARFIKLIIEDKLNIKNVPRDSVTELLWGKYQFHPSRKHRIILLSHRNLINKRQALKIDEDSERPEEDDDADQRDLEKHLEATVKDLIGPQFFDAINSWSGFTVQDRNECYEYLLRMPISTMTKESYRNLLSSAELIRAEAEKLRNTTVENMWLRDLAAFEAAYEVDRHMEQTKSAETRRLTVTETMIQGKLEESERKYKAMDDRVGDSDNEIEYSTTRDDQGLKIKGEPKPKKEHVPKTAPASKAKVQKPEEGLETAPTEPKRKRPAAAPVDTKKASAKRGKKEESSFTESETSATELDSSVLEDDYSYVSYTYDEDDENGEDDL
Described as above. The note with it: protein: recombinant; tags: C-terminal V5-His; chain copies: 2; label: 5'-32P.

B1: IIBS (dsDNA)
DNA 1: ATGAAATCTAACAATGCGCTCATCGTCATCCTCGGC
DNA 2: GCCGAGGATGACGATGAGCGCATTGTTAGATTTCAT
B1: the binding result with Topo II and in the data set with Topo IICm1 was “binds” in each case.
